Values quoted from earlier work, collected in PMC2964873.

Target: plectin-1 95-117 (Homo sapiens) (UniProt Q15149)
UniProt Q15149, sequence (Q15149 95-117): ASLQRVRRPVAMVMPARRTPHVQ

## Siah (from UniProt Q8IUQ4)
  Kd: 29 nM
